How the values were obtained:
[1] = molecular target: MBP-SpbK (full-length SpbK as a maltose-binding protein fusion) (Bacillus subtilis); assay: mass photometry + SEC-MALS; MBP-SpbK wild type and mutants in solution; 10 mM HEPES pH 7.5, 150 mM NaCl; Superdex 200 5/150 Increase for SEC-MALS; self-association
[2] = molecular target: MBP-SpbK D158R (Bacillus subtilis); assay: as above
[3] = molecular target: MBP-SpbK G194R (Bacillus subtilis); assay: as above
[4] = molecular target: the molecule itself; assay: mass photometry; YonE in solution; 10 mM HEPES pH 7.5, 150 mM NaCl; self-association

MBP-SpbK (full-length SpbK as a maltose-binding protein fusion) (natural protein)
stoichiometry N [1]: 2

MBP-SpbK D158R (natural protein)
stoichiometry N [2]: 2

MBP-SpbK G194R (natural protein)
stoichiometry N [3]: 2

B1: YonE (residues 46-506), portal protein of phage SPβ (natural protein, Bacillus subtilis phage SPβ, UniProt O31953 46-506, looked up)
chain: EAEQLKNYFSNPDEFQEEIEDLAQYFYISTAEIHQLFELIEALPTLNYKIDSFNKVKSSDKHISLLNKSLHKVKHKRLTRDLLKQVATAGTLVGIWLGDAKSPYPFIFDEIKYVFPSFRRNGDWVCVVDMELFTKYKDDQRNELLKSLSPYIKQSDYENFMKDREKYRFKELPQERTFPLRTGTLKRNQGLGTSWVTPGLYDVLHKKKLKDVERSIANKIINAVAVLTIGTDKGNGEYTNMKLPKAVKQKIHGGVKTALEKNQKDGVTVVSIPDFADINFPDVKADGLDGAKFDHINSDIQSAYGLSGSLLNGDGGNYATSSLNLDTFYKRIGVLMEDIEQEVYQKLFNLVLPAAQKDNYYMNYDKDKPLTLKEKMDILIKLNDKGWSIKHVVDNLAGVSWESYLEQTLYETEELKLQEKIRPYQTSYTFTGNEVGRPNEGNKNNDNTVKSATSNGNDNPI
notes: YonE, product of the SPβ gene yonE, portal protein; truncated construct lacking the first 45 residues, residues 46-506; Dodecamer by mass photometry and cryo-EM; printed theoretical mass of the dodecamer 665 kDa; also called wild-type YonE; YonE dodecamer; source: E. coli BL21 (DE3), autoinduction, purified (IMAC, SEC); copies: 12
stoichiometry N [4]: 12
